According to US10772972B2, “Anti-STEAP2 antibody drug conjugates, and compositions and uses thereof” (Regeneron Pharmaceuticals, Inc., priority 2016, dated 2020):
Residue numbers refer to the chain shown, from its start.

B1: BSSTEAP2/CD3-004: STEAP2×CD3 bispecific: anti-STEAP2 H1H7814N (SEQ 218), anti-CD3 H1H7251P (SEQ 1570), common LCVR SEQ 226 (antibody, V domains shown)
VH 1: QVQLVESGGGVVQPGRSLRLSCVASGFTISSYGMNWVRQAPGKGLEWVAVISYDGGNKYSVDSVKGRFTISRDNSKNTLYLQMNSLRAEDSAVYYCARGRYFDLWGRGTLVTVSS
VH 2: EVQLVESGGGLVQPGRSLRLSCAASGFTFADYTMHWVRQGPGTGLEWVSDIGWSGGSLGYADSVKGRFTISRDNAKNSLYLEMNNLRPEDTALYYCVKDKSGYGKFQYGLDVWGQGTTVTVSS
VL: DIQMTQSPSTLSASVGDRVTITCRASQSISSWLAWYQQKPGRAPNLLISKASSLKSGVPSRFSGSGSGTEFTLTVSSLQPDDFATYYCQQYYSYSYTFGQGTKLEIK
B2: H1H7814N: human-Fc anti-STEAP2 antibody, HCVR/LCVR SEQ ID NOs 218/226 (antibody, V domains shown)
VH: B1 VH 1
VL: B1 VL
modifications: human Fc
B3: BSSTEAP2/CD3-002: STEAP2×CD3 bispecific: anti-STEAP2 HCVR H2M11162N (SEQ 250), anti-CD3 HCVR CD3-VH-G5 (SEQ 1762), common LCVR SEQ 258 (antibody, V domains shown)
VH 1: QVQLQQSGPGLVKPSQTLSLTCAISGDSVSSNRAAWNWIRQSPSRGLQWLGRTYYRSKWYNDYAVSLRSRITINPVTSKNQVALHMNSVTPEDTAVYYCARAGIVVVPGPETFYYYDHGLDVWGQGTTVTVSS
VH 2: EVQLVESGGGLVQPGRSLRLSCAASGFTFDDYSMHWVRQAPGKGLEWVSGISWNSGSIGYADSVKGRFTISRDNAKNSLYLQMNSLRAEDTALYYCAKDGSGYGKFYYYGMDVWGQGTTVTVSS
VL: DIQMTQSPSSLSASVGDRVTITCRASQSIRSYLNWYQQKPGKAPELLIHAASSLQSGVPSRFSGSGSGTDFTLTISSLQPEDFASYYCQQSYSAPPITFGQGTRLEIK
B4: H2M11164N: anti-STEAP2 antibody, mouse IgG2 Fc, HCVR/LCVR SEQ ID NOs 282/290 (antibody, V domains shown)
VH: B3 VH 1 with A23V, S31T, R33S, Q48E, L67V, M86L, F113Y, D117Y
VL: B3 VL with S28N, E45K, A50V, S85T, A94T, Q101H
modifications: mouse IgG2 Fc
B5: BSSTEAP2/CD3-003: STEAP2×CD3 bispecific: anti-STEAP2 HCVR H2M11162N (SEQ 250), anti-CD3 HCVR CD3-VH-G20 (SEQ 1866), common LCVR SEQ 258 (antibody, V domains shown)
VH 1: B3 VH 1
VH 2: B3 VH 2 with D99Y
VL: B3 VL
B6: BSSTEAP2/CD3-007: STEAP2×CD3 bispecific: anti-STEAP2 H1H11162 (SEQ 250), anti-CD3 H1H7195P (SEQ 1450), common LCVR SEQ 258 (antibody, V domains shown)
VH 1: B3 VH 1
VH 2: EVQLVESGGGLVQPGRSLRLSCAASGFTFADYTMHWVRQAPGKGLEWVSDISWNSGSIAYADSVKGRFTISRDNAKNSLYLQMNSLRTEDTAFYYCAKDSRGYGHYKYLGLDVWGQGTTVTVSS
VL: B3 VL
B7: H2M11162N: anti-STEAP2 antibody, mouse IgG2 Fc, HCVR/LCVR SEQ ID NOs 250/258 (antibody, V domains shown)
VH: B3 VH 1
VL: B3 VL
modifications: mouse IgG2 Fc
B8: BSSTEAP2/CD3-006: STEAP2×CD3 bispecific: anti-STEAP2 H1H11162 (SEQ 250), anti-CD3 CD3-VH-P (SEQ 1882), common LCVR SEQ 258 (antibody, V domains shown)
VH 1: B3 VH 1
VH 2: B3 VH 2 with A23V, I58K, G59D, D99Y, Y108H, M111L
VL: B3 VL
B9: H1H11880P: anti-STEAP2 antibody, HCVR/LCVR SEQ ID NOs 34/42 (antibody, V domains shown)
VH: EVQLVESGGGLVQPGGSLRLSCAASGFTFSTYAMHWVRQAPGKGLQHVSTISTNGVNTYYADSVKGRFTISRDNSKSTLYLQMGSLRAEDMAVYYCARDKDFWSGYFDYWGQGTLVTVSS
VL: EIVMTQSPGTLSVSPGERATLSCRASQSVSSNLAWYHQKPGQAPRLLIYGASTRATGFPARFSGSGSGTEFTLTISSLQSEDFAAYYCQQYNNWPITFGQGTRLEIK

Tests used:
[1] = system: cynomolgus T cells; assay: FACS binding titration of STEAP2xCD3 bispecifics on cynomolgus T cells; details: 66.6 nM to 0.001 nM, 30 minutes at 4° C.
Method: FACS Binding Titration on Jurkat Cells, PC3_STEAP2/1 Cells and cynomolgus T Cells: Flow cytometric analysis was utilized to determine binding of STEAP2×CD3 bispecific antibodies to Jurkat, PC3_STEAP2/1 chimeric and cynomolgus T cells, followed by detection with a phycoerythrin (PE)-labeled anti-human IgG antibody. Briefly, 2×10^5 cells/well were incubated for 30 minutes at 4° C. with a serial dilution of STEAP2×CD3 bispecific antibodies or control antibody (a human IgG1 antibody that binds a feline antigen with no cross-reactivity to STEAP2 or human or cynomolgus CD3) ranging from 66.6 nM to 0.001 nM. After incubation, the cells were washed twice with cold PBS containing 1% filtered FBS and a PE-conjugated anti-human secondary antibody was added to the cells and incubated for an additional 30 minutes. Wells containing no antibody or secondary antibody only were used as a control. After incubation, cells were washed, re-suspended in 200 μL cold PBS containing 1% filtered FBS and analyzed by flow cytometry on a BD FACS Canto II.

[2] = system: monkey PBMCs; assay: T cell proliferation assay, cynomolgus PBMC; assay type: cell-based; details: for Cynomolgus PBMC proliferation activity (in words): across donors tested
Method: Thawed human or freshly isolated monkey PBMCs (50,000 cells/well) were incubated with 3-fold (human, concentration range: 5E-10M to 2.82E-15M; cynomolgus, concentration range: 1E-09M to 4.57E-13M) serial dilutions of STEAP2×CD3 bispecifics or isotype control in complete medium (RPMI supplemented with 10% FBS, 100 U/mL penicillin, 100 μg/mL streptomycin, 292 μg/mL L-glutamine) and a fixed concentration (human: 200 ng/mL, cyno: 500 ng/mL) of a commercial anti-CD28 antibody (Biolegend, Catalog #302914) in white flat bottom 96-well plates for 72 hours at 37° C. Isolated monkey PBMCs were from two donors (identified as mk8781M or mk9381M). Following incubation, CellTiter Glo® (Promega, Cat #7573) was added and luminescence, as readout for cell viability, was measured using a VICTOR X5 multi-label plate reader. Cell titer was calculated by dividing the luminescence of stimulated cells by the baseline luminescence of unstimulated cells.

[3] = system: C4-2 cells (high-STEAP2 expressing); assay: Internalization and total binding on C4-2 cells (imaging, qualitative score); assay type: cell-based, human; design: key: − (no internalization or binding); +(weak internalization or binding); ++(moderate internalization or binding); +++(robust internalization or binding); details: 10 μg/ml antibody
Method: Briefly, 20,000 C4-2 cells were seeded in PDL coated 96 well plates. The next day, cells were incubated with anti-human STEAP2 antibodies (10 μg/ml) for 30 min on ice followed by two PBS washes. Cells were then incubated with alexa488-conjugated anti-hFc Fab secondary antibody for 30 minutes on ice, followed by two additional PBS washes. Antibodies were allowed to internalize for 1 h at 37° C. in internalization buffer (PBS+2% FBS) or were maintained at 4° C. Cells were fixed in 4% formaldehyde, nuclei were stained with DRAQ5 (Cell signaling), and images were acquired on the ImageXpress micro XL (Molecular Devices).
A qualitative visual assessment of the total binding intensity and the intensity of antibodies that had internalized into vesicles was performed and scored according to the following criteria: − (no internalization or binding), +(weak internalization or binding), ++(moderate internalization or binding) and +++(robust internalization or binding).

[4] = system: human prostate cancer C4-2 cells (xenograft); assay: C4-2/human PBMC co-implant xenograft in NSG mice, immediate dosing; assay type: in vivo, mouse; details: C4-2/NSG; for Tumor growth compared to isotype control at study endpoint (in words): 0.1 or 0.01 mg/kg
Text: To assess the in vivo efficacy of the anti-STEAP2/anti-CD3 bispecifics in human tumor xenograft studies, NOD scid gamma (NSG) mice (Jackson Laboratories, Bar Harbor, Me.) were co-implanted with human peripheral blood mononuclear cells (PBMCs; ReachBio LLC., Seattle, Wash.) along with human prostate cancer C4-2 cells (MD Anderson Cancer Center, Houston Tex.) which endogenously express STEAP2.
Briefly, 5.0×10^6 C4-2 cells were co-implanted subcutaneously (s.c.) with 1.25×10^6 human PBMCs in a 50:50 mix of matrigel matrix (BD Biosciences, San Jose, Calif.) into the right flank of male NSG mice. Mice were treated intraperitoneally (i.p.) on the day of implantation (immediate treatment model) with anti-STEAP2/anti-CD3 bispecifics BSSTEAP2/CD3-001, BSSTEAP2/CD3-002 or BSSTEAP2/CD3-003, or an isotype control, at a dose of 0.1 or 0.01 mg/kg (N=5 mice/group).
Tumor size was measured 2×/week using calipers and tumor volume calculated as Volume=(length×width^2)/2. Data is shown as tumor size (mm^3) at study endpoint, 46 d post-tumor implantation (Table 7).

[5] = 0.01 mg/kg i.p. on day of implantation
[6] = 0.1 mg/kg i.p. on day of implantation

Molecule | EC50 [1] [nM] | Cynomolgus PBMC proliferation activity (in words) [2] | Internalization (37° C., 1 h) Qualitative Score [3] | Total Binding (4° C.) Qualitative Score [3] | other results
B1 | 1.99 | donor dependent |  |  | 
B2 |  |  | + | + | 
B3 |  |  |  |  | Tumor Size (mm^3) 46 d post-tumor implantation (mean ± SD) [4, 5]: 17.0 ± 8.0 mm^3; Tumor Size (mm^3) 46 d post-tumor implantation (mean ± SD) [4, 6]: 15.0 ± 12.0 mm^3; Tumor growth compared to isotype control at study endpoint (in words) [4]: significantly suppressed tumor growth
B4 |  |  | +++ | +++ | 
B5 |  |  |  |  | Tumor Size (mm^3) 46 d post-tumor implantation (mean ± SD) [4, 5]: 25.0 ± 21.0 mm^3; Tumor Size (mm^3) 46 d post-tumor implantation (mean ± SD) [4, 6]: 19.0 ± 12.0 mm^3; Tumor growth compared to isotype control at study endpoint (in words) [4]: significantly suppressed tumor growth
B6 | 17.3 | donor dependent |  |  | 
B7 |  |  | +++ | +++ | 
B8 | 7.99 | induced robust cynomolgus PBMC proliferation in all donors tested |  |  | EC50 ([2]; donor mk9381M, anti-CD28 500 ng/mL, 72 hours, read-out: Cyno PBMC Proliferation [M] (donor)): 1.53e-11 M
B9 |  |  | + | + | 
